B1: Sialic acid-binding Ig-like lectin 10 (Mus musculus), Q80ZE3 (parent)
chain: MSLLLFLLSFLLDGPQGQMESYFLQVQRIVKAQEGLCIFVPCSFSSPEGKWLNRSPLYGYWFKGIRKPSLSFPVATNNKDKVLEWEARGRFQLLGDISKKNCSLLIKDVQWGDSTNYFFRMERGFERFSFKEEFRLQVEALTQKPDIFIPEVLEPGEPVTVVCLFSWTFNQCPAPSFSWMGDAVSFQESRPHTSNYSVLSFIPGLQHHDTELTCQLDFSRMSTQRTVRLRVAYAPRSLAISIFHDNVSVPDLHENPSHLEVQQGQSLRLLCTADSQPPATLSWVLEDQVLSWSSPVGSRTLALELPWVKAGDSGHYTCQAENRLGSQQHTLDLSVLYPPQDLRVTVSQANRTVLEILRNAISLPVLEGQSLCLVCVTYSNPPANVSWAWVTQTLIPIQSSEPGVLELPLVQREHEGEFTCAAQNPLGAQRISLSLSVHYPPQMSSPSCSWEAKGLHCNCSSRAWPAPSLRWRLGEGLLEGNSSNASFTVTFSSLGPWVNSSLSLLQELGPSLWLSCESWNTHGAQTTSVLLLPDKDSATAFSKGAVLGFGITALLALCLIVVIVKTLQKKGTQEEPSRPKLSRGSTILDYINVVPKTRSLARNWKAEPDAPSRSSPLDTHFPKPKKKQKDPHFTYPGCPDPTSSSQVPVSENNPEELHYAALNFSRLRLQETQDPQDTYSDYTEVRVH
partner: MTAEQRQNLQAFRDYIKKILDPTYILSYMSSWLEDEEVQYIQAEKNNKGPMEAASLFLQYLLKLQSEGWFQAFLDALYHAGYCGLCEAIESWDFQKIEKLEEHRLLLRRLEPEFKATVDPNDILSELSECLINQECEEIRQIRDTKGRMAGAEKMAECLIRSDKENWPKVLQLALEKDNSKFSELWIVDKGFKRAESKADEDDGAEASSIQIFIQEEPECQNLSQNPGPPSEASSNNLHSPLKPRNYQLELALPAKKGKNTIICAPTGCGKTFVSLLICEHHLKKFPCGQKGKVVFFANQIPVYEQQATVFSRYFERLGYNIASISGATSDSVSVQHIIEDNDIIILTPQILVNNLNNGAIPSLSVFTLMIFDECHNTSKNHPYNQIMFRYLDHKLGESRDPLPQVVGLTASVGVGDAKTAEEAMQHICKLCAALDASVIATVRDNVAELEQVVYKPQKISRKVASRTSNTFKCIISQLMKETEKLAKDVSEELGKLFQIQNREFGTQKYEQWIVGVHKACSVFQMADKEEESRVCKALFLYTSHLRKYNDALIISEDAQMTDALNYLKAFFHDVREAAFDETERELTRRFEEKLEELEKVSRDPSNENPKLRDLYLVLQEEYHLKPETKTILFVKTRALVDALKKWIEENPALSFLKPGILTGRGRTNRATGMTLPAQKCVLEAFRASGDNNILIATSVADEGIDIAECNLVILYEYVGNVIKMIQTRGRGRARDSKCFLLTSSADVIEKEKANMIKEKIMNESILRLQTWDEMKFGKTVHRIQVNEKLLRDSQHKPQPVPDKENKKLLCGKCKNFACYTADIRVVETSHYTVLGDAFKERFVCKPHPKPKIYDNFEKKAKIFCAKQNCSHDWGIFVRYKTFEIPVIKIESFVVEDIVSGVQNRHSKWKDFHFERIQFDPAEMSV

Variants of: B1
Settings: with rigi_mouse Rigi

| effect of a mutation on the interaction | Variant |
| --- | --- |
| decreasing interaction strength | Y590F;Y635F;Y659F;Y679F |
